Assay results reported in publication PMC9307175 (PLoS Pathogens, 2022).

T1: Flag- and His6-tagged STAT1, bacterially expressed (pET-Flag-STAT1-His6) (human, UniProt P42224 1-750)
T1 construct: also called STAT1 (Flag-tagged); recombinant STAT1; source: E. coli BL21(DE3), purified (Ni-NTA)
T1 sequence: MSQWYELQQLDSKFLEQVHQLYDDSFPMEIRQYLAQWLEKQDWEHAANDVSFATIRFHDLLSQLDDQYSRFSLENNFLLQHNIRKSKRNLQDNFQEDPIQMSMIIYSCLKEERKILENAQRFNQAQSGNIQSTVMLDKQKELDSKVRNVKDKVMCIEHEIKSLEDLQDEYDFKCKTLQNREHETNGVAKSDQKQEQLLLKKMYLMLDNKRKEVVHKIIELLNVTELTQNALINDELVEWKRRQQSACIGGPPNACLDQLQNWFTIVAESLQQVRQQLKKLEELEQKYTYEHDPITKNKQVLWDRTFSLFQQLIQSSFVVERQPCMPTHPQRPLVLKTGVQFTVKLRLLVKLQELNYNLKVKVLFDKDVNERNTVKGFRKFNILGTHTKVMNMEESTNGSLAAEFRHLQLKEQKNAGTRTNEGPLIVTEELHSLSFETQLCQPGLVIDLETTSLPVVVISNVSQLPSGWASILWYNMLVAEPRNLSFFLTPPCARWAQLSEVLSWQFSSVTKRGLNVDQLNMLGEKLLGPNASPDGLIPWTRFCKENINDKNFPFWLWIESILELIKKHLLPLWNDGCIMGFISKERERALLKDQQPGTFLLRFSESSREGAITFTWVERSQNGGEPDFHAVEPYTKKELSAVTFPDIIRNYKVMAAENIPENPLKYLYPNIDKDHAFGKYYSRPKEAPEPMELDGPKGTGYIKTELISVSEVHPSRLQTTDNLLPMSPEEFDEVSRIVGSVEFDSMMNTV

B1: Flag-tagged STAT1 (pCEBZ-STAT1-SF) (natural protein)
chain: T1 sequence
notes: also called STAT1-Flag
B2: Flag- and His6-tagged IRF9, bacterially expressed (pET-Flag-IRF9-His6) (natural protein)
chain: MASGRARCTRKLRNWVVEQVESGQFPGVCWDDTAKTMFRIPWKHAGKQDFREDQDAAFFKAWAIFKGKYKEGDTGGPAVWKTRLRCALNKSSEFKEVPERGRMDVAEPYKVYQLLPPGIVSGQPGTQKVPSKRQHSSVSSERKEEEDAMQNCTLSPSVLQDSLNNEEEGASGGAVHSDIGSSSSSSSPEPQEVTDTTEAPFQGDQRSLEFLLPPEPDYSLLLTFIYNGRVVGEAQVQSLDCRLVAEPSGSESSMEQVLFPKPGPLEPTQRLLSQLERGILVASNPRGLFVQRLCPIPISWNAPQAPPGPGPHLLPSNECVELFRTAYFCRDLVRYFQGLGPPPKFQVTLNFWEESHGSSHTPQNLITVKMEQAFARYLLEQTPEQQAAILSLV
notes: also called IRF9 (Flag-tagged); recombinant IRF9; source: E. coli BL21(DE3), purified (Ni-NTA)
B3: S-peptide and His6 dually-tagged vIRF-1, bacterially expressed (pET-S-vIRF-1-His6) (natural protein)
chain: MDPGQRPNPFGAPGAIPKKPCLSQGSPGTSGSGAPCDEPSRSESPGEGPSGTGGSAAAGDITRQAVVAAITEWSRTRQLRISTGASEGKASIKDWIVCQVNSGKFPGVEWEDEERTRFRIPVTPLADPCFEWRRDGELGVVYIRERGNMPVDASFKGTRGRRRMLAALRRTRGLQEIGKGISQDGHHFLVFRVRKPEEEQCVECGVVAGAVHDFNNMARLLQEGFFSPGQCLPGEIVTPVPSCTTAEGQEAVIDWGRLFIRMYYNGEQVHELLTTSQSGCRISSALRRDPAVHYCAVGSPGQVWLPNVPNLACEIAKRELCDTLDACAKGILLTSSCNGIFCVCYHNGPVHFIGNTVPPDSGPLLLPQGKPTRIFNPNTFLVGLANSPLPAPSHVTCPLVKLWLGKPVAVGKLEPHAPSPRDFAARCSNFSDACVVLEIMPKPLWDAMQ
notes: source: E. coli BL21(DE3), purified (Ni-NTA)
B4: StrepII+Flag (SF)-tagged vIRF-1 (natural protein)
chain: B3 chain

How the values were obtained:
[1] = target: T2, chitin-binding domain (CBD)-tagged STAT2 (human (HeLa cDNA library), UniProt P52630 1-851); experiment: co-IP; conditions: partners not purified
T2 construct: also called STAT2-CBD; CBD-fused STAT2
T2 sequence (P52630 whole entry, the tested form may be a part): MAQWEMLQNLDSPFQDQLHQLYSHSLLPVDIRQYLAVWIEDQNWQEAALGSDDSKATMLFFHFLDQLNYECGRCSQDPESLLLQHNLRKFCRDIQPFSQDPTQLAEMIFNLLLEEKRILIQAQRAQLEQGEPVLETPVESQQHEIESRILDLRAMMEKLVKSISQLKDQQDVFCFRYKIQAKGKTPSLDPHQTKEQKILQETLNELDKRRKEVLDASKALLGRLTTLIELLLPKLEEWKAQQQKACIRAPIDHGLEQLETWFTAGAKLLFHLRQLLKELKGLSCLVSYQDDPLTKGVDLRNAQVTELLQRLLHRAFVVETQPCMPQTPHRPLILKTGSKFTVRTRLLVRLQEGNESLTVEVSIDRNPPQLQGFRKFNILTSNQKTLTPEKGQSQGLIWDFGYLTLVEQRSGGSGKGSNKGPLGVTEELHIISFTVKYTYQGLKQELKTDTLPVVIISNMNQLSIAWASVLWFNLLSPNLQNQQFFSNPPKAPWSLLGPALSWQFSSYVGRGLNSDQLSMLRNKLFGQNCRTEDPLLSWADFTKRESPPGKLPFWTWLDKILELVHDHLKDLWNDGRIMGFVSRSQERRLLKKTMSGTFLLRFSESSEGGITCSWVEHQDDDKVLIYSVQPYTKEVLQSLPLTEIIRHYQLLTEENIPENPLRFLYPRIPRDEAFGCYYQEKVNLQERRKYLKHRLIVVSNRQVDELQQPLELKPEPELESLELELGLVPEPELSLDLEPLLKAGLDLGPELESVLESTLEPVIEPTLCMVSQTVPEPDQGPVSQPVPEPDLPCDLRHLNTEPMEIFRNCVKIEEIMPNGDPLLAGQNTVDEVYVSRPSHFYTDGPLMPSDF

[2] = target: B3; experiment: pull-down; conditions: both partners purified
[3] = target: T1, Flag- and His6-tagged STAT1, …; experiment: pull-down; conditions: both partners purified
[4] = target: T3, Flag- and His6-tagged STAT2, bacterially expressed (pET-Flag-STAT2-His6) (human, UniProt P52630 1-851); experiment: pull-down; conditions: both partners purified
T3 construct: also called STAT2 (Flag-tagged); recombinant STAT2; source: E. coli BL21(DE3), purified (Ni-NTA)
T3 sequence (P52630 whole entry): as the sequence (P52630 whole entry, the tested form may be a part) above

B1: binds [1].

B2: binds [2].

B3: binds [3]; binds [4].

B4: binds [1].
